Columns and labels:
[1] = biological target: T1, CUB_C (CUB module and C-terminal peptide from human TSG-6), wild type (human, UniProt P98066 128-277); assay: SPR
T1 chain: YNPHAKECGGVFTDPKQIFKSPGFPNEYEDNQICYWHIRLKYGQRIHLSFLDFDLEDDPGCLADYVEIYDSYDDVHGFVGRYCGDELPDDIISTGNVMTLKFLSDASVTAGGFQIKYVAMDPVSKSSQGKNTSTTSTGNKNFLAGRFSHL

[2] = biological target: T2, Full-length human TSG-6 (rhTSG-6), wild type (human, UniProt P98066 18-277); assay: SPR; + 10 mM EDTA
[3] = biological target: T2, Full-length human TSG-6 (rhTSG-6), wild …; assay: SPR; + 10 mM EDTA; remark: listed apart in the source

koff [1]: 0.0004 s⁻¹
koff [2]: 0.0051 s⁻¹
Kd [3]: 5.1 nM
B1: Recombinant human heavy chain 1 (rHC1) of inter-alpha-inhibitor, wild type (natural protein)
chain: SKSSEKRQAVDTAVDGVFIRSLKVNCKVTSRFAHYVVTSQVVNTANEAREVAFDLEIPKTAFISDFAVTADGNAFIGDIKDKVTAWKQYRKAAISGENAGLVRASGRTMEQFTIHLTVNPQSKVTFQLTYEEVLKRNHMQYEIVIKVKPKQLVHHFEIDVDIFEPQGISKLDAQASFLPKELAAQTIKKSFSGKKGHVLFRPTVSQQQSCPTCSTSLLNGHFKVTYDVSRDKICDLLVANNHFAHFFAPQNLTNMNKNVVFVIDISGSMRGQKVKQTKEALLKILGDMQPGDYFDLVLFGTRVQSWKGSLVQASEANLQAAQDFVRGFSLDEATNLNGGLLRGIEILNQVQESLPELSNHASILIMLTDGDPTEGVTDRSQILKNVRNAIRGRFPLYNLGFGHNVDFNFLEVMSMENNGRAQRIYEDHDATQQLQGFYSQVAKPLLVDVDLQYPQDAVLALTQNHHKQYYEGSEIVVAGRIADNKQSSFKADVQAHGEGQEFSITCLVDEEEMKKLLRERGHMLENHVERLWAYLTIQELLAKRMKVDREERANLSSQALQMSLDYGFVTPLTSMSIRGMADQDGLKPTIDKPSEDSPPLEMLGPRRTFVLSALQPSPTHSSSNTQRLPDRVTGVDTD

Reference: PMC4661386 (2015)
